Assay results from the DeepSol protein solubility set.

Experiment: soluble on expression in E. coli; label from the status in PepcDB or PDB records

Soluble on expression in E. coli, not soluble:
MGSDKIHHHHHHMAKLKISKKISTALINSLGAGVVPRVGVEYIAVGREKELKSLLQNLDDIAEGVAAFRFIIGNYGSGKSFLLQLIRNRAMEQGFVVADADLSSERRLAGSNNEGVATYRELMSHLATKTRPDGGALVSILEGWINKIQQEVVKETEMRPNDDGFDDQVESKIREVVQYIEGLVHGFDFGSVIIAYWRGYRMDDDNLKNAAMRWLRGEFTTKVEAKAALGVRVIIDDDSWYDYIKLFAKFVAEIGYKGLLILVDEAVHLYQISTTVTREKNYNRLLAMFNDTMQCKAEHLGIVVGGTTKFLEDPKRGLFADQAWQRRTKESRFVAQANVQENSGPVIRLNPLSEAEILTLLQRLAEIHALNFGYEQTLTNRELKEFVQEIINRLGAEALLTPGEIVRDFMSVLNILHQNPGIVFAELIHGSKFKPTAMGKNPNVDENGAAEFSL, MGSDKIHHHHHHMAKYPNTFHRASLMKQMTFADAEYAGKRKHTRRERFLIEMDQVVPWKGLIALIEPHYPKGEGGRPAYPLMAMLRIHLMQNWFGYSDPAMEEALYETTILRQFAGLSLDRIADETTILNFRRLLEKHELAGGILQVINGYLGDRGLMLRQGTVVDATIIHAPSSTKNKDGKRDPEMHQTKKGNQYFFGMKAHIGVDAESGLVHSLVGTAANVADVTQVDQLLHGEETYVSGDAGYTGVDKRAEHQDRQMIWSIAARPSRYKKHGEKSLIARVYRKIEFTKAQLRAKVEHPFRVIKRQFGYTKVRFRGLAKNTAQQATLFALSNLWMVRKRLLAMGEVRL, MGSDKIHHHHHHMALPVLICDDSAMARKQMARTLPKDWDVDITFATNGAEGLEAIRAGKGEVVFLDLNMPVMDGYEVLQTIQQQDLPALVIVVSGDIQIKAHERVKALGALDFIQKPVSAEAIAGILQEYGILVPGEGEGDEAEDNPLLKVDMRDACQEIANVAMGRAADLLAKLLDVFVVLPIPNVNVLEVSELTMALKATETSAKVTALCQGFIGAGVAGEALLLFHDSSFQDMAKLMKLDGPGDEATEVEVLIDTGNVLIGAFLNGIAEQLDMHFSQAHPVVLGRHCTVNDLIHDNAEKWHRTLAMEINYRIEDHNIECDLLLLFTEDSLPTLNYKLGYMLDTD, MGSDKIHHHHHHMAPDLASLQRISGDSAIDQWLQVPGSWVEEPNERRGGASGVQRVYTGDGRLLYRKQQTGHVYRDWQRPFGYPTAMRERDALRAFESLGIRVPRLVYSGCRKVDGQWQALLVTEALEGFSSLDECYARGDQDRWGEAKHQRILQQIGATIARMNLAHWQHGCLYPKHIFVRVEGEAIEVALIDLEKSRRRLTVNKASQHDLKQLKRRSSWTGAQWQAFIYGYQTAFGSAIKGLQT, MGSDKIHHHHHHMAPRTKTRERIVQASLELFNQQGERCITTNHIAAHMEISPGNLYYHFANKQVIIAELFTQYETLVGSFLTLRTDRLPTIEDKRDYFLAMIDAMWRYRFLHQDLEHLLTSDAELARRYRRFSYRCLMQAMNIYRGFIKAGILQMDESQIEWTSLNTWIVLTSWVRFLCTNRENNAELNESAIRRGVYQVLMLESVFVAPQAREAFDALCETFHSSLPEALA, MGSDKIHHHHHHMARMFYDEMHDAGGECRSHYREFARWLADTPEEQLLQRRREADLLFHRAGITFTLYGDEQGTERLIPFDTIPRSIPAAEWAHIEAGCIQRVQALNLFLADLYHEQRILKAGVIPAEQVLANDQYQLAMQGLDLPGNVYAHIAGVDLVRDGSGNYYVLEDNLRTPSGVSYMLENRKMMMRLFPELFVRQRVAPIDHYPDLLLDTLKRASDVESPSVVVLTPGRFNSAYFEHAFLAREMGVELVEGADLFVRDERVYMRTTAGPQPVDVIYRRIDDAFLDPLAFNPDSLLGVPGLLAAYRAGNLVLANAIGTGVADDKSIYPYVPDMIRFYLGEDPLLHNVPTWQCRKPKELAHVLAHLPELVVKETQGSGGYGMLVGPAASREEIELFRERLKARPEAYIAQPTLSLSTCPTFVESGVAPRHIDLRPFVLSAPDRVRLVPGGLTRVALREGSLVVNSSQGGGTKDTWVVEE, MGSDKIHHHHHHMARPRKTIVSLDDTPYYHCCSRVVRKAFLCGIDSATGENFEHRRAWVEGRMFELATIFAMDICAYAVMSNHLHIVLRVDAEQAKQWTDKQVLIQWHKGFKGTLLTQRFVKDEVLDEFELKTVIDSVAVYRERLTSISWFIRALCEPIARMANKEDGCTGHFWEGRFKSQALLDEAAVLACMAYVDLNPVRAKMAATPETSDYTGIQRRINAALKGEQPNELLPFLGNERDNMPKGLMFSAKDYLLLVEDTGRIIRDDKRGAISRSSQYILDRLNIPTENWLKITKDFGHLFKGAVGSLQALSQYCEHLERKRRQSAANCQRWLCG, MGSDKIHHHHHHMASAPQANLPMFYNDLMPLNSRDHAAWKAKNADAAPWLIGQHAIPLTAEEFPQAARHYPIIFASGDNPVPLALMGLNEGVNVFVDEDGKVTQPVYIPAYVRRYPFLLAKLNPNSEELSLCFDPSSGLIGDSVDGVELFSDGQPSEATKAALGFCEQFEQAGQRTQAFIDELKKHDLLMEGEVAIQQQGNEQPFIYRGFQMVNQDKLRETRGDVLRGWAQSGLLPLLYAHLFSLELISQIFGAQVQMGKGPIPATPVPAE, MGSDKIHHHHHHMASLLALDFDGVLCDGLREYFLAAWQAGCDRDPSWPEVPEPSLEDRFRLLRPVIEQGWEMPVLLQALRREVADAEVLADWPQLCDRVLKDWGLTTTELSQAMDRVRDRWIKRDRKEWLQLHHFYPGVAERLAQQTAPWVIISTKDGRFIAELLEQIPNLQPPLAIYGKEVGVPKTQTLIQLQVEFEQIAFVEDRLPALEAAAQLESVDLYLADWGYNTDRDRQQAMTSDRIQLLRLTDFSSGRSPALAASPVES, MGSDKIHHHHHHMATANKNLKATWVATVTNLDWPSVSSVAITDEAARVSKQKEELTGILDEIVAMKMNAVIFQVVPCADAFYASDLLPWSKYLTGTLGKNPGFDPLAYAIEQAHARNIELHAWVNPYRVSMNASDATIEELNNSSSDSPASVFKTHPEWTGTAANRFVLNPGIPEVQTWVSNIVEEIVTKYDVDAIQFDDYFYYETASSLLQDDATYQKYNTNFTTKADWRRNNTYSLVDTCHKKIAAVKANVLFGVSPAGVWRNKSDDPLGSDTQAGASNYDFAYADTRKWVIDGIIDYIAPQVYWPFAREVARYDVITQWWADTVSGTGTALYIGMALYKVGTASETEPDWTVEGGVPEITRQLDLNDSLTEVSGCMLFRHMFLRASQTQQVVDYLKLRWADV, MGSDKIHHHHHHMATENALYEILTEKIKQDTLVLPTLPEVALKVRSAADDPDINLNQMSDIIAHDPALSLGMLKVANNALMGRSIKVETVPQAVTRIGLIQIKSIATAMAIEQVFVSNNDVVAMYMNKAWVKTIDIASVAISLMNIYLKENKHTSLSLDTITLASLIHNIGVLPILTEAENHPDVFANPTFLQQAIIKLSGRVGGAITRKWGFSEEFTLLAESWSDLTILPSEVHYLDFIRAGAIYHNVFKNESTKVALLNNYTKKGILPEVDYMDSDEFKGMCEDVRAMFI, MGSDKIHHHHHHMATIEILGFPHAYELTAPTSYPDALVFIHGWLNSRGYWQPVTSRLSVDFQCLSYDLRGFGESQSQLETDFHRGSSSASLSAQSLQEINLSFDSLYTPAAYAQDLAALLEQLNITSAWLVGHSLGGTIALWAAAQIPQRIKGVICINAGGGIYLKEAFEQFRMAGQRFLQVRPRWLSQLPLIDLLFTRASVSRPLDRQWARQRVIDFVVADPEAALGALLDSTTEDEVNRLPKLVSQLKQPVYFLAGTDDKVMEPKYVRHLASFHPLFQYCGDNVIEIPDCGHLAMLEQPDAVASHIKSLVIGHG, MGSDKIHHHHHHMATPETILSVKDLRVRFRTLDGAVEAVKGINIHVNAGETVAVVGESGSGKSQTMMAAMSLLASNGEATGSVDYRGRNLLTLSKSDLNKVRGAKISMIFQEPMTSLDPLYSIGNQLIEPIRRHRGLNAAEAREEALKLLRLVHIPDPERRMKSYPHEMSGGQRQRVMIAMALANDPDILIADEPTTALDVTIQAQILMLLAELQRKLGMAIVFITHDLGIVRRFADRVYVMRQGEVVEEGEAGAIFANPQHAYTKMLLAAEPTGSKAAPPANAPVVLEGRHVEVTFKIGGGFLAGEPLMLRAVDDISIRLQRNQTIGIVGESGSGKSTLGRALLRLLPSDGLIRFGDRDISTADRQAMRPLRRQMQLVFQDPFGSLSPRMTVGQVITEGLLVHEPNLSGKQRDQRAVEALREVGLDPNARNRYPHEFSGGQRQRIAIARAMILKPKMVVLDEPTSALDRSVQKQIVELLRKLQADHELSYLFISHDLSVVRAMADYIIVMKQGKIVEEGPTEAIFSNPQHVYTQTLMAAAIDVTRFRLSA, MGSDKIHHHHHHMATSQERLGMNLKKCIQRLRKVANRGPSHKARLENIDEKIVVTGTRGKSGATRWLYEILYGRGRDAFAKITGNRPLVLHDGESHPIERGRRVTLYENEAQLRQYAPVETAIFENQAIGEYTTRTVHQRFTDPDVIFLTNIRSDHLDWLGDTPTQIARSFARTIPDGVTLVVGEQRPTLRAMLKRELEETDVQIRWVLVPKALQNVPGAETILGLNDVLEALGEQPLSDRQIEAYIDEMQVRWTTLADGRVYNAASVNDIDSTEIVRRALDDNDVDTIQPLIYLRPDRRARTASFLSYLDGLYSDDVFEVTHAVGPHAELFDNQASFPVATHDASKSASAVLDAALSPGWPVFIMGNTVADFMRDLEAEIEARRVDSSQGMPEKSTSANEKRAIERPQ, MGSDKIHHHHHHMAVGKNNNKMGKKGGKKKAVDPFSRKEWYDIKAPNMFNTRQVGKTLINRTQGTKIASEGLKGRVFEVSLGDLNNSEADFRKFKLIAEDVQGKNVLTNFHAMSMTHDKLCSIVKKWHTLIEANTAVKTTDGYTLRVFVIAFTKKSVNQVKKTSYTKTSKIRKIRSEMIGCIEKEVTGCDLKEVVSKLIPDSIGKDIEKTCSKLYPLQEVYIRKVKIIKRPKVDLGRLHDLHGDSITVGADGEKVDRPDDYEPPVQQEV, MGSDKIHHHHHHMAVQAKQCKAVLLCGYYGEHNLGDDALLQVLLEELPSSLQPWITANDSNVIKGLAPKAQVINRRSLLESIRALFQVQGLILGGGSLLQDSTSFKSLIYYLILIVIAQQRGVPVLLWGQGLGPFRYRLSRWMVRRVLRRVQAISWRDPDSFQLAEQWCLPSPMLMAPDPVWQLPSRSWEGGQAVVLCWRSTSMLDRFGWQHLLQALEMILTDIDAPVHWLAFHQRQDEELFRKLDRQGLISSSLRSRSHSFAFDSLTEVMNQFTMARLVLPMRLHALILAQLAGSPTVALSYDPKVSSAALMANVPFTDLQSLPDIRLLAGLWGQVLDVPPDLGKIEAIRKHASQHSKIIDKVFN, MGSDKIHHHHHHMAVRPYWKGYLKLSLVTCPVQMMPATSESEKVRFHTLNRETQNRVVSHYVDSVTGKEVKDEDEVKGYQRGENEYIILEDEELENVALDSTKTIDISTFTPRDSVEWIWLDTPYYLSPNDPVGQEAFSVIRDAMEAQNMVGISRLVISRRERAVMLEPRGKGIVLWTLRYGDEVRDEDTYFAGIDDEETADREMMPLVQQLIKKQTKHWDAKMVIDPVQERLLDIIAAKKKALKKSARAKPSAPAKSTPSNVINIMDALKKSVAAENRSSK
